The supplement of paper PMC11908140

B1: library; numbered along this chain (parent)
chain: MRKPRAAVGSGHRKQAASQEGRQKHAKNNSQAKPSACDGLARQPEEVVLQASVSSYHLFRDVAEVTAFRGSLLSWYDQEKRDLPWRRRAEDEMDLDRRAYAVWVSEVMLQQTQVATVINYYTGWMQKWPTLQDLASASLEEVNQLWAGLGYYSRGRRLQEGARKVVEELGGHMPRTAETLQQLLPGVGRYTAGAIASIAFGQATGVVDGNVARVLCRVRAIGADPSSTLVSQQLWGLAQQLVDPARPGDFNQAAMELGATVCTPQRPLCSQCPVESLCRARQRVEQEQLLASGSLSGSPDVEECAPNTGQCHLCLPPSEPWDQTLGVVNFPRKASRKPPREESSATCVLEQPGALGAQILLVQRPNSGLLAGLWEFPSVTWEPSEQLQRKALLQELQRWAGPLPATHLRHLGEVVHTFSHIKLTYQVYGLALEGQTPVTTVPPGARWLTQEEFHTAAVSTAMKKVFRVYQGQQPGTCMGSKRSQVSSPCSRKKPRMGQQVLDNFFRSHISTDAHSLNSAAQ

Variants of: B1
Assay: 8OG:A repair function score (normalized; synonymous = 0, nonsense = -1) (normalized log-likelihood score); higher = more repair activity (WT-like)
Conditions: with 8OG:A DNA repair reporter (GFP) in HEK-293 MUTYH KO cells
Procedure, shortened: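 After 72 h, viable mCherry+ cells were split into GFP+ (repair) and GFP− bins in three replicates per tile. These cells were MUTYH knockout HEK-293 cells holding lentiviral MUTYH cDNA NNN codon-scan libraries, kept in 10 pg/ml doxycycline and co-transfected with mCherry plus an 8OG:A GFP repair reporter. Sequencing of tile amplicons gave per-tile Rosace fitness scores, normalized into a repair function score anchored on synonymous and nonsense distributions. Synonymous medians were fixed at 0, nonsense at -1, and variants under 300 counts per million at the start were removed.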
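Note: cells sorted at 72 h after reporter transfection.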

Variant | 8OG:A repair function score
MRKPRAAVGSGHRKQAASQEGRQKHAKNNSQAKPSACDGLARQPEEVVLQASVSSYHLFRDVAEVTAFRGSLLSWYDQEKRDLPWRRRAEDEMDLDRRAYAVWVSEVMLQQTQVATVINYYTGWMQKWPTLQDLASASLEEVNQLWAGLGYYSRGRRLQEGARKVVEELGGHMPRTAETLQQLLPGVGRYTAGAIASIAFGQATGVVDGNVARVLCRVRAIGADPSSTLVSQQLWGLAQQLVDPARPGDFNQAAMELGATVCTPQRPLCSQCPVESLCRARQRVEQEQLLASGSLSGSPDVEECAPNTGQCHLCLPPSEPWDQTLGVVNFPRKASRKPPREESSATCVLEQPGALGAQILLSQRPNSGLLAGLWEFPSVTWEPSEQLQRKALLQELQRWAGPLPATHLRHLGEVVHTFSHIKLTYQVYGLALEGQTPVTTVPPGARWLTQEEFHTAAVSTAMKKVFRVYQGQQPGTCMGSKRSQVSSPCSRKKPRMGQQVLDNFFRSHISTDAHSLNSAAQ [V362S] | -0.406
MRKPRAAVGSGHRKQAASQEGRQKHAKNNSQAKPSACDGLARQPEEVVLQASVSSYHLFRDVAEVTAFRGSLLSWYDQEKRDLPWRRRAEDEMDLDRRAYAVWVSEVMLQQTQVATVINYYTGWMQKWPTLQDLASASLEEVNQLWAGLGYYSRGRRLQEGARKVVEELGGHMPRTAETLQQLLPGVGRYTAGAIASIAFGQATGVVDGNVARVLCRVRAIGADPSSTLVSQQLWGLAQQLVDPARPGDFNQAAMELGATVCTPQRPLCSQCPVESLCRARQRVEQEQLLASGSLSGSPDVEECAPNTGQCHLCLPPSEPWDQTLGVVNFPRKASRKPPREESSATCVLEQPGALGAQILLVQRPNSGLLAGLWEFPSVTWEPSEQLQRKALLQELQRWAGPLPATHLRHLGEVVHTFSHIKLTYQVYGLALEGQTPVTTVPPGDRWLTQEEFHTAAVSTAMKKVFRVYQGQQPGTCMGSKRSQVSSPCSRKKPRMGQQVLDNFFRSHISTDAHSLNSAAQ [A445D] | -1.09
MRKPRAAVGSGHRKQAASQEGRQKHAKNNSQAKPSACDGLARQPEEVVLQASVSSYHLFRDVAEVTAFRGSLLSWYDQEKRDLPWRRRAEDEMDLDRRAYAVWVSEVMLQQTQVATVINYYTGWMQKWPTLQDLASASLEEVNQLWAGLGYYSRGRRLQEGARKVVEELGGHMPRTAETLQQLLPGVGRYTAGAIASIAFGQATGVVDGNVARVLCRVRAIGADPSQTLVSQQLWGLAQQLVDPARPGDFNQAAMELGATVCTPQRPLCSQCPVESLCRARQRVEQEQLLASGSLSGSPDVEECAPNTGQCHLCLPPSEPWDQTLGVVNFPRKASRKPPREESSATCVLEQPGALGAQILLVQRPNSGLLAGLWEFPSVTWEPSEQLQRKALLQELQRWAGPLPATHLRHLGEVVHTFSHIKLTYQVYGLALEGQTPVTTVPPGARWLTQEEFHTAAVSTAMKKVFRVYQGQQPGTCMGSKRSQVSSPCSRKKPRMGQQVLDNFFRSHISTDAHSLNSAAQ [S227Q] | -0.0353
MRKPRAAVGSGHRKQAASQEGRQKHAKNNSQAKPSACDGLARQPEEVVLQASVSSYHLFRDVAEVTAFRGSLLSWYDQEKRDLPWRRRAEDEMDLDRRAYAVWVSEVMLQQTQVATVINYYTGWMQKWPTLQDLASASLEEVNQLWAGLGYYSRGRRLQEGARKVVEELGGHMPRTAETLQQLLPGVGRYTAGAIASIAFGQATGVVDGNVARVLCRVRAIGADPSSTLVSQQLWGLAQQLVDPARPGDFNQAAMELGATVCTPQRPLCSQCPVESLCRARQRVEQEQLLASGSLSGSPDVEECAPNTGQCHLCLPPSEPWDQTLGVVNFPRKAFRKPPREESSATCVLEQPGALGAQILLVQRPNSGLLAGLWEFPSVTWEPSEQLQRKALLQELQRWAGPLPATHLRHLGEVVHTFSHIKLTYQVYGLALEGQTPVTTVPPGARWLTQEEFHTAAVSTAMKKVFRVYQGQQPGTCMGSKRSQVSSPCSRKKPRMGQQVLDNFFRSHISTDAHSLNSAAQ [S335F] | -0.0626
MRKPRAAVGSGHRKQAASQEGRQKHAKNNSQAKPSACDGLARQPEEVVLQASVSSYHLFRDVAEVTAFRGSLLSWYDQEKRDLPWRRRAEDEMDLDRRAYAVWVSEVMLQQTQVATVINYYTGWMQKWPTLQDLASASLEEVNQLWAGLGYYSRGRRLQEGARKVVEELGGHMPRTAETLQQLLPGVGRYTAGAIASIAFGQATGVVDGNVARVLCRVRAIGADPSSTLVSQQLWGLAQQLVDPARPGDFNQAAMELGATVCTPQRPLCSQCPVESLCRARQRVEQEQLLASGSLSGSPDVEECAPNTGQCHLCLPPSEPWDQTLGVVNFPRKASRKPPREESSATCVLEQPGALGAQILLVQRPNSGLLAGLWEFPSVTWEPSEQLQRKALLQELQRWAGPLPATHLRHLGEVVHTFSHIKLTYQVYGLALEGQTPVTTVPPGARWLTQEEFHTAAVSTAMKKVFRVVQGQQPGTCMGSKRSQVSSPCSRKKPRMGQQVLDNFFRSHISTDAHSLNSAAQ [Y469V] | -0.153
MRKPRAAVGSGHRKQAASQEGRQKHAKNNSQAKPSACDGLARQPEEVVLQASVSSYHLFRDVAEVTAFRGSLLSWYDQEKRDLPWRRRAEDEMDLDRRAYAVWVSEVMLQQTQVATVINYYTGWMQKWPTLQDLASASLEEVNQLWAGLGYYSRGRRLQEGARKVVEELGGHMPRTAETLQQLLPGVGRYTAGAIASIAFGQATGVVDGNVARVLCRVRAIGADPSSTLVSQQLWGLAQQLVDPARPGDFNQAAMELGATVCTPQRPLCSQCPVESLCRARQRVEQEQLLASGSLSGSGDVEECAPNTGQCHLCLPPSEPWDQTLGVVNFPRKASRKPPREESSATCVLEQPGALGAQILLVQRPNSGLLAGLWEFPSVTWEPSEQLQRKALLQELQRWAGPLPATHLRHLGEVVHTFSHIKLTYQVYGLALEGQTPVTTVPPGARWLTQEEFHTAAVSTAMKKVFRVYQGQQPGTCMGSKRSQVSSPCSRKKPRMGQQVLDNFFRSHISTDAHSLNSAAQ [P299G] | -0.0369
